Laboratory results from patent US20240301022A1 (ASTON UNIVERSITY, published 2024).

Legend:
[1] = biological target: T1, human β3-adrenergic receptor (human, UniProt P13945 1-408); test: [125I] ZAG saturation binding to crude membranes of CHO-K1 cells transfected with human β3-AR, non-linear regression
T1 construct: whole, on cells; CHO-K1 cells transfected with the β3-AR, from Astra Zeneca; also called β3-AR; β-3AR
Protocol: (§1) Binding studies were carried out at 37° C. by incubating membranes (500 μg protein) in 0.4 ml 50 mM Tris HCl, pH 7.5, containing 0.5 mM MgCl₂ for 60 min with various concentrations of [¹²⁵I]
(§2) Non-specific binding was determined by the binding of [¹²⁵I]

[2] = biological target: T2, human β2-adrenergic receptor (human, UniProt P07550 1-413); test: [125I] ZAG binding to crude membranes of transfected CHO-K1 cells; reference is ZAG on β3-AR
T2 construct: whole, on cells; CHO-K1 cells transfected with the human β2-AR, from the University of Nottingham; also called β2-AR; β-2AR
Protocol: as §1, §2

[3] = biological target: T2, human β2-adrenergic receptor; test: [125I] ZAG saturation binding to crude membranes of CHO-K1 cells transfected with human β2-AR, non-linear regression
Protocol: as §1, §2

[4] = biological target: T1, human β3-adrenergic receptor; test: [125I] ZAG binding to crude membranes of transfected CHO-K1 cells; reference is ZAG on β2-AR
Protocol: as §1, §2

[5] = biological target: T3, human β1-adrenergic receptor (human, UniProt P08588 1-477); test: [125I] ZAG binding to crude membranes of CHO-K1 cells transfected with human β1-AR, non-linear regression
T3 construct: whole, on cells; CHO-K1 cells transfected with the human β1-AR, from the University of Nottingham; also called β1-AR; β-1AR
T3 sequence (P08588 whole entry): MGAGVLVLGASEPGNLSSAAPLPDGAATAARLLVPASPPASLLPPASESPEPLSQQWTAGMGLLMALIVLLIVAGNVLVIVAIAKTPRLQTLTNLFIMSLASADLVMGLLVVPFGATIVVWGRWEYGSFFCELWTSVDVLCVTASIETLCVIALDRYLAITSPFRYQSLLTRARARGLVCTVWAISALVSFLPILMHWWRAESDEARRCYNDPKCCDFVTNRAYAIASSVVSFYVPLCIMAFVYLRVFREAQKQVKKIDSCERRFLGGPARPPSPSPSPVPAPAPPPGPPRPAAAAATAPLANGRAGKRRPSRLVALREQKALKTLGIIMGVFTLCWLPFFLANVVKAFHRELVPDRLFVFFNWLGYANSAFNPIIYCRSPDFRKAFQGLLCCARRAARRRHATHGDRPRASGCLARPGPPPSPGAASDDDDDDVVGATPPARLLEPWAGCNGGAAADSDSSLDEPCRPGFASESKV
Protocol: as §1, §2

T1 sequence (P13945 whole entry): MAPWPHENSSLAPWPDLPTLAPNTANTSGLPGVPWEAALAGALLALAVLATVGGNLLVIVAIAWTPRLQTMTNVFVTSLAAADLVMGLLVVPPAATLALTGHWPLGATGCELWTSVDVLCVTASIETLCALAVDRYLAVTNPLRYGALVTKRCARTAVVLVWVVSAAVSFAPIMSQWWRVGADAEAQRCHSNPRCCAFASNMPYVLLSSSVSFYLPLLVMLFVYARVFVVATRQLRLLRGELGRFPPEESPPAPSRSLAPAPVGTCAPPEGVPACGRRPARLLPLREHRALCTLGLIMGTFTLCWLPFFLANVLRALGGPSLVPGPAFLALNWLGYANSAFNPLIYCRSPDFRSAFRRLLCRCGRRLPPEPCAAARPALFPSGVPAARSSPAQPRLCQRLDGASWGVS

B1: recombinant human zinc-α2-glycoprotein (ZAG) (ligand)
chain: QENQDGRYSLTYIYTGLSKHVEDVPAFQALGSLNDLQFFRYNSKDRKSQPMGLWRQVEGMEDWKEDSQLQKAREDMETLKDIVEYYNDSNGSHVLQGRFGCEIENNRSSGAFWKYYYDGKDYIEFNKEIPAWVPFDPAAQITKQKWEAEPVYVQRAKAYLEEECPATLRKYLKYSKNILDRQDPPSVVVTSHQAPGEKKKLKCLAYDFYPGKIDVHWTRAGQVQEPELRGDVLHNGNGTYQSWVVVAVPPQDTAPYSCHVQHSSLAQPLVVPWEAS
modifications: 125I label (iodo bead labelling) in the membrane binding studies; labelled residues not stated
notes: Glycoprotein; also called Zn-α2-glycoprotein; rhZAG
B1 was tested, and the Kd [1] was 0.046 µM, the “Bmax relative to β3-AR” value [2] was 20% and the “Kd relative to β3-AR” value [2] was 2 fold. For the same binder, the Kd [3] was 0.071 µM, the “Bmax relative to β2-AR” value [4] was about 3 fold and the “Kd relative to β2-AR” value [4] was about 0.5 fold. B1: no binding [5].
